Positions count from the first letter of the chain named. Numbers in names are those of the source. Blank lines part the entries; values can stand above or below the binder they belong to.
Biological target: T1, human CCR8 (human, UniProt P51685 1-355)
T1 construct: whole, on cells; also called hCCR8
Assay: FACS of purified scFv on CHO-K1-human CCR8 cells

T1 sequence (P51685 whole entry): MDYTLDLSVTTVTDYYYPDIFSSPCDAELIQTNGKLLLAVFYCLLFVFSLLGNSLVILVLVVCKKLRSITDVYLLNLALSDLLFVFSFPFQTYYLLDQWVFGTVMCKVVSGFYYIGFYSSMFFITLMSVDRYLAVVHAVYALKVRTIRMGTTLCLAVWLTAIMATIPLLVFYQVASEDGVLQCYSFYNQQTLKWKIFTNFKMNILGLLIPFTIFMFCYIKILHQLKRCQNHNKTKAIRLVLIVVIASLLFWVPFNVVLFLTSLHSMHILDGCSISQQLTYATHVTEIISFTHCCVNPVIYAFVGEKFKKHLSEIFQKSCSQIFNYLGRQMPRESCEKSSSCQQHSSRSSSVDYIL

GeoMean AF647 (RL1-H) of CHO-K1-human CCR8 / GeoMean AF647 (RL1-H) in H12(NC): 2.2
B1: 149-9 scFv (WT) (scFv)
scFv: EVQLVESGGGLVQPGGSLKLSCAASGFTFNTYAMNWVRQASGKGLEWVGRIRSKSNFYATAYAASVKGRFTISRDDSKNTAYLQMNSLKTEDTAVYYCTRGRDYGSSYAMDYWGQGTLVTVSSGGGGSGGGGSGGGGSDIVMTQSPLSLPVTPGEPASISCRSSKSLLHSNANTYLYWFLQKPGQSPQLLIYRMSNLASGVPDRFSGSGSGTDFTLKISRVEAEDVGVYYCMQHLEYPLTFGGGTKVELK
notes: VH-VL format with (G4S)3 linker

GeoMean AF647 (RL1-H) of CHO-K1-human CCR8 / GeoMean AF647 (RL1-H) in H12(NC): 10.4
B2: VH-PH5-P7B9 (scFv)
scFv: B1 scFv with D103E

GeoMean AF647 (RL1-H) of CHO-K1-human CCR8 / GeoMean AF647 (RL1-H) in H12(NC): 7.1
B3: VH-PH5-P5F7 (scFv)
scFv: B1 scFv with D103E, S106R

GeoMean AF647 (RL1-H) of CHO-K1-human CCR8 / GeoMean AF647 (RL1-H) in H12(NC): 4.6
B4: VH-PH5-P2B6(LCDR3) (scFv)
scFv: B1 scFv with E236K

GeoMean AF647 (RL1-H) of CHO-K1-human CCR8 / GeoMean AF647 (RL1-H) in H12(NC): 2.9
B5: VL-PH5-P3E4 (scFv)
scFv: B1 scFv with E236R

GeoMean AF647 (RL1-H) of CHO-K1-human CCR8 / GeoMean AF647 (RL1-H) in H12(NC): 3.6
B6: VH-PH5-P3E3 (scFv)
scFv: B1 scFv with D103E, S107A

GeoMean AF647 (RL1-H) of CHO-K1-human CCR8 / GeoMean AF647 (RL1-H) in H12(NC): 3.2
B7: VL-PH5-P5D9 (scFv)
scFv: B1 scFv with E236S

Reference: patent US20250034266A1 (ZAI LAB SHANGHAI, published 2025)
